From patent US9724381B2 (THE ADMINISTRATORS OF THE TULANE EDUCATIONAL FUND, priority 2009, dated 2017)
Values belong to the substance of their own block, whether it stands above or below them. Where no end group is shown, it is not given here. [ ]: non-standard residue; d: D form. The star is where a group is joined. Desaminotyrosyl = O=C(CCc1ccc(O)cc1)*; Cha = N[C@@H](CC1CCCCC1)C(=O)O; dCha = N[C@H](CC1CCCCC1)C(=O)O; dPal = not defined here; Aib = CC(C)(N)C(=O)O

Assays:
[1] = target: T1, Ghrelin/GHRP/GHS Receptor (Rattus norvegicus, UniProt O08725); test: In vitro GH release from cell culture of pituitary cells; format: cell-based; design: After dispersion, the cells were collected by centrifugation, wash with DMEM and placed into culture well; endogenous in cells; host or cells: dispersed primary rat anterior pituitary cells; conditions: Table 8
T1 sequence (O08725 whole entry): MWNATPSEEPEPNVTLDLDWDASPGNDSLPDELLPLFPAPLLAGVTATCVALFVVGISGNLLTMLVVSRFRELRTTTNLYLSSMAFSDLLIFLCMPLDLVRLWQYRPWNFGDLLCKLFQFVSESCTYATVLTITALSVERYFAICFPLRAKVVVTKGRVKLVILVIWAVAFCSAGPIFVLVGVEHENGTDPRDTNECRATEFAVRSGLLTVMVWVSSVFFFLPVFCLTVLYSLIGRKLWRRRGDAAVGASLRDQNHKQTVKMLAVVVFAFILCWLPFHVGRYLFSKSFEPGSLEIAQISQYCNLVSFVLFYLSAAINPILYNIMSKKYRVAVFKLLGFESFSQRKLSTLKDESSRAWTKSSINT
Description: In vitro GH Release-Female rats of the CD-1 strain were housed in a constant temperature room at 24° C. with 14 h light and 10 h darkness. The rats were fed Purina Rat chow and water at libitum. All studies were started between 0800-1000 hours. Pituitaries of mature female Sprague Dawley rats were rapidly removed after decapitation, neurointermediate lobe discarded and then placed in a pH 7.4 buffer. The pituitaries were cut into ˜3-mm pieces and then transferred to a flask containing HEPS buffer with trypsin and incubated at 37° C. Cells were triturated several times during this period. After dispersion, the cells were collected by centrifugation, wash with DMEM and placed into culture well. Cell cultures were maintained for 4 days at 37° with 8% CO2 added to the incubator atmosphere. After 4 days in culture, cells were washed with lactated Ringer's solution adjusted to pH 7.2-7.4 and then vehicle, peptide alone or peptide plus stimulator was added to media. Incubation time was 60-120 minutes after which media was removed from each well for GH determination. The GH RIA reagents were distributed by the NIH. Control data was collected from cell cultures treated with only the corresponding vehicle in the absence of peptide or stimulator. Control stimulated data was collected from cell cultures treated with stimulator alone in the absence of any peptide.

[2] = target: T1, Ghrelin/GHRP/GHS Receptor; test: In vitro GH release from isolated pituitary glands, pituitary incubation method; format: cell-based; conditions: Table 1
Description: Hormonal activities were obtained from in vitro studies using pituitaries of 20 day old CD-1 strain Sprague Dawley female rats. Two pituitaries were incubated for a total of 4-6 hours. Medium was removed each hour for RIA of GH level and fresh medium was added again. After two one hour preincubation periods (P1-P2), the vehicle/peptides were added to two one hour incubations (I3-I4). Peptide activity was calculated as the change in the hormonal level (delta) between I3+I4 and P2. For antagonist activity, the incubation was continued for 2 additional hours (I5-I6) where both the peptide and a stimulator of GH secretion was added and the antagonist activity was calculated as the change in the hormonal level (delta) between I5+I6 and P2. The peptides were assayed in triplicate and the hormone was assayed in duplicate. Each value recorded represents the mean of 6. The GH RIA reagents were distributed by the NIH. Control data was collected from isolated pituitary glands treated with only the corresponding vehicle in the absence of peptide or stimulator. Control stimulated data was collected from isolated pituitary glands treated with stimulator alone in the absence of any peptide.

[3] = peptide antagonist dosage 3 (head prints μg/i.v.)
[4] = peptide antagonist dosage 10 (head prints μg/i.v.)
[5] = peptide antagonist dosage 30 (head prints μg/i.v.)
[6] = peptide antagonist dosage 100 (head prints μg/i.v.)
[7] = peptide antagonist 10 μg/ml + stimulator His-DTrp-Ala-Trp-DPhe-Lys-NH2 10 ng/ml
[8] = peptide antagonist 30 μg/ml + stimulator His-DTrp-Ala-Trp-DPhe-Lys-NH2 10 ng/ml
[9] = peptide antagonist 3 μg/ml + stimulator His-DTrp-Ala-Trp-DPhe-Lys-NH2 10 ng/ml
[10] = peptide antagonist 0.3 μg/ml + stimulator His-DTrp-Ala-Trp-DPhe-Lys-NH2 10 ng/ml
[11] = peptide antagonist 1 μg/ml + stimulator His-DTrp-Ala-Trp-DPhe-Lys-NH2 10 ng/ml
[12] = peptide antagonist dosage 1 (head prints μg/i.v.)

Substance: DeaminoTyr-DTrp-Ser-Trp-DPhe-Lys-NH2 ([Desaminotyrosyl][dW]SW[dF]K-NH2; SMILES NCCCC[C@H](NC(=O)[C@@H](Cc1ccccc1)NC(=O)[C@H](Cc1c[nH]c2ccccc12)NC(=O)[C@H](CO)NC(=O)[C@@H](Cc1c[nH]c2ccccc12)NC(=O)CCc1ccc(O)cc1)C(N)=O)
Change in stimulated GH release versus preincubation (delta) [2, 7]: 3325 ± 391 ng/mL
Change in stimulated GH release versus preincubation (delta) [2, 8]: 3810 ± 621 ng/mL

Substance: DesaminoTyr-DTrp-Ala-Trp-DPhe-NH2 ([Desaminotyrosyl][dW]AW[dF]-NH2; SMILES C[C@H](NC(=O)[C@@H](Cc1c[nH]c2ccccc12)NC(=O)CCc1ccc(O)cc1)C(=O)N[C@@H](Cc1c[nH]c2ccccc12)C(=O)N[C@H](Cc1ccccc1)C(N)=O)
Change in stimulated GH release versus preincubation (delta) [2, 9]: 1302 ± 269 ng/mL
Change in stimulated GH release versus preincubation (delta) [2, 8]: -959 ± 75 ng/mL

Substance: DesaminoTyr-DTrp-DLys-Trp-DPhe-NH2 ([Desaminotyrosyl][dW][dK]W[dF]-NH2; SMILES NCCCC[C@@H](NC(=O)[C@@H](Cc1c[nH]c2ccccc12)NC(=O)CCc1ccc(O)cc1)C(=O)N[C@@H](Cc1c[nH]c2ccccc12)C(=O)N[C@H](Cc1ccccc1)C(N)=O)
Change in stimulated GH release versus preincubation (delta) ([2]; peptide antagonist 0.1 μg/ml + stimulator His-DTrp-Ala-Trp-DPhe-Lys-NH2 10 ng/ml): 4297 ± 1061 ng/mL
Change in stimulated GH release versus preincubation (delta) [2, 10]: 2404 ± 802 ng/mL
Change in stimulated GH release versus preincubation (delta) [2, 11]: 688 ± 327 ng/mL
Change in stimulated GH release versus preincubation (delta) [2, 9]: -466 ± 432 ng/mL
Change in stimulated GH release versus preincubation (delta) [2, 7]: -1068 ± 318 ng/mL
Change in stimulated GH release versus preincubation (delta) [2, 8]: -576 ± 110 ng/mL

Substance: DesaminoTyr-DTrp-Ser-Trp-DPhe-NH2 ([Desaminotyrosyl][dW]SW[dF]-NH2; SMILES NC(=O)[C@@H](Cc1ccccc1)NC(=O)[C@H](Cc1c[nH]c2ccccc12)NC(=O)[C@H](CO)NC(=O)[C@@H](Cc1c[nH]c2ccccc12)NC(=O)CCc1ccc(O)cc1)
Change in stimulated GH release versus preincubation (delta) [2, 7]: 3119 ± 488 ng/mL
Change in stimulated GH release versus preincubation (delta) [2, 8]: 3258 ± 682 ng/mL

Substance: His-DTrp-DLys-Trp-DPhe-Lys-NH2 (H[dW][dK]W[dF]K-NH2; N-terminus assumed; SMILES NCCCC[C@H](NC(=O)[C@@H](Cc1ccccc1)NC(=O)[C@H](Cc1c[nH]c2ccccc12)NC(=O)[C@@H](CCCCN)NC(=O)[C@@H](Cc1c[nH]c2ccccc12)NC(=O)[C@@H](N)Cc1c[nH]cn1)C(N)=O)
Change in stimulated GH release versus preincubation (delta) [2, 10]: 952 ± 200 ng/mL
Change in stimulated GH release versus preincubation (delta) [2, 11]: 324 ± 181 ng/mL
Change in stimulated GH release versus preincubation (delta) [2, 9]: 134 ± 91 ng/mL
Change in stimulated GH release versus preincubation (delta) [2, 7]: -83 ± 132 ng/mL
Change in stimulated GH release versus preincubation (delta) [2, 8]: -175 ± 59 ng/mL

Substance: His-DTrp-DLys-Trp-DPhe-NH2 (H[dW][dK]W[dF]-NH2; N-terminus assumed; SMILES NCCCC[C@@H](NC(=O)[C@@H](Cc1c[nH]c2ccccc12)NC(=O)[C@@H](N)Cc1c[nH]cn1)C(=O)N[C@@H](Cc1c[nH]c2ccccc12)C(=O)N[C@H](Cc1ccccc1)C(N)=O)
Change in stimulated GH release versus preincubation (delta) [2, 10]: 1765 ± 160 ng/mL
Change in stimulated GH release versus preincubation (delta) [2, 9]: 949 ± 178 ng/mL
Change in stimulated GH release versus preincubation (delta) [2, 8]: 91 ± 103 ng/mL

Substance: His-DTrp-DTrp-Lys-NH2 (H[dW][dW]K-NH2; N-terminus assumed; SMILES NCCCC[C@H](NC(=O)[C@@H](Cc1c[nH]c2ccccc12)NC(=O)[C@@H](Cc1c[nH]c2ccccc12)NC(=O)[C@@H](N)Cc1c[nH]cn1)C(N)=O)
Unstimulated Basal GH release from cell cultures of pituitary cells [1, 3]: 1124 ± 37 ng/mL
Unstimulated Basal GH release from cell cultures of pituitary cells [1, 4]: 749 ± 10 ng/mL
Unstimulated Basal GH release from cell cultures of pituitary cells [1, 5]: 615 ± 41 ng/mL

Substance: Tyr-DTrp-DLys-Trp-DPhe-NH2 (Y[dW][dK]W[dF]-NH2; N-terminus assumed; SMILES NCCCC[C@@H](NC(=O)[C@@H](Cc1c[nH]c2ccccc12)NC(=O)[C@@H](N)Cc1ccc(O)cc1)C(=O)N[C@@H](Cc1c[nH]c2ccccc12)C(=O)N[C@H](Cc1ccccc1)C(N)=O)
Change in stimulated GH release versus preincubation (delta) [2, 9]: -480 ± 95 ng/mL
Change in stimulated GH release versus preincubation (delta) [2, 8]: -363 ± 66 ng/mL

Substance: Tyr-DTrp-DTrp-Phe-Phe-NH2 (Y[dW][dW]FF-NH2; N-terminus assumed; SMILES NC(=O)[C@H](Cc1ccccc1)NC(=O)[C@H](Cc1ccccc1)NC(=O)[C@@H](Cc1c[nH]c2ccccc12)NC(=O)[C@@H](Cc1c[nH]c2ccccc12)NC(=O)[C@@H](N)Cc1ccc(O)cc1)
Change in stimulated GH release versus preincubation (delta) [2, 10]: 1274 ± 329 ng/mL
Change in stimulated GH release versus preincubation (delta) [2, 7]: 1034 ± 182 ng/mL
Change in stimulated GH release versus preincubation (delta) [2, 8]: -167 ± 157 ng/mL

Substance: αAib-DTrp-DAla-cyclohexylAla-NH2 ([Aib][dW][dA][Cha]-NH2; N-terminus assumed; SMILES C[C@@H](NC(=O)[C@@H](Cc1c[nH]c2ccccc12)NC(=O)C(C)(C)N)C(=O)N[C@@H](CC1CCCCC1)C(N)=O)
Unstimulated Basal GH release from cell cultures of pituitary cells [1, 12]: 1086 ± 52 ng/mL
Unstimulated Basal GH release from cell cultures of pituitary cells [1, 3]: 1103 ± 18 ng/mL
Unstimulated Basal GH release from cell cultures of pituitary cells [1, 4]: 994 ± 22 ng/mL
Unstimulated Basal GH release from cell cultures of pituitary cells [1, 5]: 704 ± 115 ng/mL

Second part, the substance after the results:

Unstimulated Basal GH release from cell cultures of pituitary cells [1, 3]: 170 ± 19 ng/mL
Unstimulated Basal GH release from cell cultures of pituitary cells [1, 4]: 181 ± 31 ng/mL
Unstimulated Basal GH release from cell cultures of pituitary cells [1, 5]: 161 ± 20 ng/mL
Unstimulated Basal GH release from cell cultures of pituitary cells [1, 6]: 146 ± 21 ng/mL
Substance: DPhe-Ala-Phe-DPal-NH2 ([dF]AF[dPal]-NH2; reading uncertain; also: printed as DPhe-Ala-Phe-DPal-NH2)

Unstimulated Basal GH release from cell cultures of pituitary cells [1, 4]: 267 ± 27 ng/mL
Unstimulated Basal GH release from cell cultures of pituitary cells [1, 5]: 276 ± 65 ng/mL
Unstimulated Basal GH release from cell cultures of pituitary cells [1, 6]: 360 ± 84 ng/mL
Substance: DPhe-Ala-Phe-DPhe-Lys-NH2 ([dF]AF[dF]K-NH2; N-terminus assumed; SMILES C[C@H](NC(=O)[C@H](N)Cc1ccccc1)C(=O)N[C@@H](Cc1ccccc1)C(=O)N[C@H](Cc1ccccc1)C(=O)N[C@@H](CCCCN)C(N)=O)

Unstimulated Basal GH release from cell cultures of pituitary cells [1, 3]: 1146 ± 34 ng/mL
Unstimulated Basal GH release from cell cultures of pituitary cells [1, 4]: 1086 ± 32 ng/mL
Unstimulated Basal GH release from cell cultures of pituitary cells [1, 5]: 871 ± 89 ng/mL
Substance: DPhe-Trp-DPhe-Phe-Met-NH2 ([dF]W[dF]FM-NH2; N-terminus assumed; SMILES CSCC[C@H](NC(=O)[C@H](Cc1ccccc1)NC(=O)[C@@H](Cc1ccccc1)NC(=O)[C@H](Cc1c[nH]c2ccccc12)NC(=O)[C@H](N)Cc1ccccc1)C(N)=O)

Change in stimulated GH release versus preincubation (delta) [2, 9]: 341 ± 222 ng/mL
Change in stimulated GH release versus preincubation (delta) [2, 7]: -125 ± 101 ng/mL
Change in stimulated GH release versus preincubation (delta) [2, 8]: -122 ± 44 ng/mL
Substance: His-DTrp-DArg-Trp-DPhe-NH2 (chain 1 H[dW][dR]W[dF]-NH2; chain 2 H[dW][dR]W[dF]-NH2; not fully specified; printed as His-DTrp-DArg-Trp-DPhe-NH2)

Change in stimulated GH release versus preincubation (delta) [2, 10]: 1542 ± 523 ng/mL
Change in stimulated GH release versus preincubation (delta) [2, 11]: 323 ± 69 ng/mL
Change in stimulated GH release versus preincubation (delta) [2, 9]: 445 ± 188 ng/mL
Change in stimulated GH release versus preincubation (delta) [2, 7]: 287 ± 68 ng/mL
Change in stimulated GH release versus preincubation (delta) [2, 8]: -319 ± 95 ng/mL
Substance: His-DTrp-DTrp-Phe-Met-NH2 (H[dW][dW]FM-NH2; N-terminus assumed; SMILES CSCC[C@H](NC(=O)[C@H](Cc1ccccc1)NC(=O)[C@@H](Cc1c[nH]c2ccccc12)NC(=O)[C@@H](Cc1c[nH]c2ccccc12)NC(=O)[C@@H](N)Cc1c[nH]cn1)C(N)=O)

Unstimulated Basal GH release from cell cultures of pituitary cells [1, 12]: 980 ± 44 ng/mL
Unstimulated Basal GH release from cell cultures of pituitary cells [1, 3]: 826 ± 32 ng/mL
Unstimulated Basal GH release from cell cultures of pituitary cells [1, 4]: 602 ± 53 ng/mL
Unstimulated Basal GH release from cell cultures of pituitary cells [1, 5]: 492 ± 11 ng/mL
Substance: αAib-DTrp-DcyclohexylAla-NH2 ([Aib]-[dW]-[dCha]-NH2; N-terminus assumed; SMILES CC(C)(N)C(=O)N[C@H](Cc1c[nH]c2ccccc12)C(=O)N[C@H](CC1CCCCC1)C(N)=O)
